Measurements: patent publication US20190345485A1

Molecular target: MCR2(OVA)
Assay: cell-based or functional assay

Substance: OT-II TCR
- NFAT-activation triggered by a T-cell population holding 1% peptide-specific CD4+ T-cells (% of the maximal NFAT-activation): 50
